Experimental data: PMC3679298

Tests used:
[1] = molecular target: HLA-C*03:04 on single-antigen beads; experiment: Luminex single-antigen HLA bead binding assay
[2] = molecular target: HLA-C*06:02 on single-antigen beads; experiment: Luminex single-antigen HLA bead binding assay

Row | Substance | Kd [1] [µM] | MFI at 20 μg/ml [2] [MFI] | Kd [2] [µM]
1 | soluble KIR2DL3*002 Fc fusion protein (sKIR2DL3*002) (from UniProt P43628 22-245) | 1.2 | – | –
2 | soluble KIR2DL3*001 Fc fusion protein (sKIR2DL3*001) (from UniProt P43628 22-245) | 1 | – | –
3 | soluble KIR2DL2*001 Fc fusion protein (sKIR2DL2*001) (from UniProt P43627 22-245) | 0.2 | < 500 | –
4 | soluble KIR2DL2*003 Fc fusion protein (sKIR2DL2*003) (from UniProt P43627 22-245) | 0.7 | < 500 | 24
5 | soluble KIR2DL2*006 Fc fusion protein (sKIR2DL2*006) (from UniProt P43627 22-245) | – | < 500 | 4.3
6 | soluble KIR2DL3*005 Fc fusion protein (sKIR2DL3*005) (from UniProt P43628 22-245) | 0.1 | < 500 | 7
